This series concerns the molecule itself. The experiment in a line: SDS-PAGE of thrombin-released pE2; self-association into a homodimer.

Protocol: In addition, samples of the GE2 and pE2 peptides were heated at 100° C. for 3 minutes for subsequent analysis (Lanes 2 and 4) by SDS PAGE (A) and Western blotting (B and C). The molecular weight of these products were compared with markers (Lane 6)
The purified preparations of GE2 and pE2 were characterized by SDS PAGE and Western blotting techniques (FIG. 7). […] In addition, samples of the GE2 and pE2 peptides were heated at 100° C. for 3 minutes for subsequent analysis (Lanes 2 and 4) by SDS PAGE (A) and Western blotting (B and C).

B1: pE2 peptide, monomeric form (23 kD) (other)
chain: QLFYSRPVVSANGEPTVKLYTSVENAQQDKGIAIPHDIDLGESRVVIQDYDNQHEQDRPTPSPAPSRPFSVLRANDVLWLSLTAAEYDQSTYGSSTGPVYVSDSVTLVNVATGAQAVARSLDWTKVTLDGRPLSTIQQYSKTFFVLPLRGKLSFWEAGTTKAGYPYNYNTTASDQLLVENAAGHRVAISTYTTSLGAGPVSISAVAVLAPPPR
notes: Monomer obtained by dissociating the dimer; Also used for the self-association rows; also called pE2 monomer; heated pE2
With B1, the binding result is “binds”.

These data come from US7204989 (YANG SHENG TANG, dated 2007).
